The source of these data is US20140093496A1 (Chugai, published 2014).

For orientation: Kd means the concentration at which binding is half-saturated. A higher Kd goes with weaker binding.

Experiment in all cases: SPR (Biacore)
The target of assay [1] is T1, FcγRIIa type H extracellular domain with C-terminal His tag (human, UniProt P12318 34-217).
T1 construct: extracellular domain; also called FcgRIIaH; FcγRIIaH
T1 sequence (looked up): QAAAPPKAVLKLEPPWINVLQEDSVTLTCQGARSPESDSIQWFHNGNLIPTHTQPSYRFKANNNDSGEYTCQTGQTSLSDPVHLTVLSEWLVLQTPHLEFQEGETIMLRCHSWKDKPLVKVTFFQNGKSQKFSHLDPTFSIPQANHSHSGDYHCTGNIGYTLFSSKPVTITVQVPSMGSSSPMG
An excerpt: (§1) IL6R-L was utilized as the common antibody L chain for all of the antibodies, the antibodies were expressed and purified according to the method of Reference Example 1, and binding to each of the FcγRs (FcγRIa, FcγRIIa H type, FcγRIIa R type, FcγRIIb, and FcγRIIIa V type) was comprehensively evaluated by the method of Reference Example 2.
(§2) Furthermore, KD(IIaR)/KD(IIb) and KD(IIaH)/KD(IIb) in the table respectively represent the value obtained by dividing the KD value of each variant for FcγRIIaR by the KD value of each variant for FcγRIIb, and the value obtained by dividing the KD value of each variant for FcγRIIaH by the KD value of each variant for FcγRIIb. KD(IIb) of the parent polypeptide/KD(IIb) of the altered polypeptide refers to the value obtained by dividing the KD value of the parent polypeptide for FcγRIIb by the KD value of each variant for FcγRIIb.

The target in assay [2] is T2, FcγRIa extracellular domain with C-terminal His tag (human, UniProt P12314 16-292).
T2 construct: also called FcgRIa
From the text: as §1, §2

For assay [3], the target named is T3, FcγRIIa type R extracellular domain with C-terminal His tag (human, UniProt P12318 34-217).
T3 construct: extracellular domain; also called FcgRIIaR; FcγRIIaR
T3 sequence (looked up): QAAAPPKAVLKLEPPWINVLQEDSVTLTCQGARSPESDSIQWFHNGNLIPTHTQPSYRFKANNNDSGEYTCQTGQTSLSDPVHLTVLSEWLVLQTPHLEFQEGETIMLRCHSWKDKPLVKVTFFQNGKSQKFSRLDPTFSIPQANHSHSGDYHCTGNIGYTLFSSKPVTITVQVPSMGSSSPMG
From the text: as §1, §2

For assay [4], the target named is T4, FcγRIIb extracellular domain with C-terminal His tag (human, UniProt P31994 43-217).
T4 construct: extracellular domain; also called FcgRIIb
T4 sequence (looked up): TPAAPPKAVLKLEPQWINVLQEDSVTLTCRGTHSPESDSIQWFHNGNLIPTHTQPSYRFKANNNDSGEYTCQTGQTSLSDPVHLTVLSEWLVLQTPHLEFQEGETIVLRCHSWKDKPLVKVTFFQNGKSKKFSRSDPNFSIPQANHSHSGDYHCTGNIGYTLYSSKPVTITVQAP
From the text: as §1, §2

T2 sequence (P12314 16-292): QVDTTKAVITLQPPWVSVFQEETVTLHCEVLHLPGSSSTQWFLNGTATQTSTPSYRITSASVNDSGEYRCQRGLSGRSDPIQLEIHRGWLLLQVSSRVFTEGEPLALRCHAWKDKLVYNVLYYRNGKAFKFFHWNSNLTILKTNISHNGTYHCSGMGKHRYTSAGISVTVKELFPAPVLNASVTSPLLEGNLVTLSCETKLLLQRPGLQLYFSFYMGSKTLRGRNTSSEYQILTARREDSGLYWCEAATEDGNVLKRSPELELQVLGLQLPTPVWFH

B1: IL6R-BP089/IL6R-L (antibody, human IgG1, kappa)
heavy: QVQLQESGPGLVKPSETLSLTCAVSGHSISHDHAWSWVRQPPGEGLEWIGFISYSGITNYNPSLQGRVTISRDNSKNTLYLQMNSLRAEDTAVYYCARSLARTTAMDYWGEGTLVTVSSASTKGPSVFPLAPSSKSTSGGTAALGCLVKDYFPEPVTVSWNSGALTSGVHTFPAVLQSSGLYSLSSVVTVPSSSLGTQTYICNVNHKPSNTKVDKKVEPKSCDKTHTCPPCPAPEYLGGDSVFLFPPKPKDTLMISRTPEVTCVVVDVSHEDPEVKFNWYVDGVEVHNAKTKPREEQYNSTYRVVSVLTVLHQDWLNGKEYKCKVSNAALPKPIEKTISKAKGQPREPQVYTLPPSRDELTKNQVSLTCLVKGFYPSDIAVEWESNGQPENNYKTTPPVLDSDGSFFLYSKLTVDKSRWQQGNVFSCSVMHEALHNHYTQESLSLSP
light: not shown
notes: L234Y/P238D/K326A/A330K (EU) in IL6R-B3; copies: 2 + 2
The molecule B1 yielded an equilibrium dissociation constant (Kd) in assay [1] of 20 µM.

B2: IL6R-BP202/IL6R-L (antibody, human IgG1, kappa)
heavy: QVQLQESGPGLVKPSETLSLTCAVSGHSISHDHAWSWVRQPPGEGLEWIGFISYSGITNYNPSLQGRVTISRDNSKNTLYLQMNSLRAEDTAVYYCARSLARTTAMDYWGEGTLVTVSSASTKGPSVFPLAPSSKSTSGGTAALGCLVKDYFPEPVTVSWNSGALTSGVHTFPAVLQSSGLYSLSSVVTVPSSSLGTQTYICNVNHKPSNTKVDKKVEPKSCDKTHTCPPCPAPELLGDDSVFLFPPKPKDTLMISRTPEVTCVVVDVSHEDGEVKFNWYVDGVEVHNAKTKPREEQYNSTYRVVSVLTVLHQDWLNGKEYKCKVSNAALPRPIEKTISKAKGQPREPQVYTLPPSRDELTKNQVSLTCLVKGFYPSDIAVEWESNGQPENNYKTTPPVLDSDGSFFLYSKLTVDKSRWQQGNVFSCSVMHEALHNHYTQESLSLSP
light: not shown
notes: G237D/P238D/P271G/K326A/A330R (EU) in IL6R-B3; copies: 2 + 2
In the case of B2, the equilibrium dissociation constant (Kd) in assay [2] amounted to 0.095 µM; in assay [1], 9.2 µM.

B3: IL6R-BP129/IL6R-L (antibody, human IgG1, kappa)
heavy: QVQLQESGPGLVKPSETLSLTCAVSGHSISHDHAWSWVRQPPGEGLEWIGFISYSGITNYNPSLQGRVTISRDNSKNTLYLQMNSLRAEDTAVYYCARSLARTTAMDYWGEGTLVTVSSASTKGPSVFPLAPSSKSTSGGTAALGCLVKDYFPEPVTVSWNSGALTSGVHTFPAVLQSSGLYSLSSVVTVPSSSLGTQTYICNVNHKPSNTKVDKKVEPKSCDKTHTCPPCPAPDLLGGDSVFLFPPKPKDTLMISRTPEVTCVVVDVSHEDPEVKFNWYVDGVEVHNAKTKPREEQDNSTYRVVSVLTVLHQDWLNGKEYKCKVSNKALPKPIEKTISKAKGQPREPQVYTLPPSRDELTKNQVSLTCLVKGFYPSDIAVEWESNGQPENNYKTTPPVLDSDGSFFLYSKLTVDKSRWQQGNVFSCSVMHEALHNHYTQESLSLSP
light: not shown
notes: E233D/P238D/Y296D/A330K (EU) in IL6R-B3; copies: 2 + 2
In turn, B3 registered a dissociation constant (Kd) in assay [1] of 40 µM.

B4: IL6R-BP208/IL6R-L (antibody, human IgG1, kappa)
heavy: QVQLQESGPGLVKPSETLSLTCAVSGHSISHDHAWSWVRQPPGEGLEWIGFISYSGITNYNPSLQGRVTISRDNSKNTLYLQMNSLRAEDTAVYYCARSLARTTAMDYWGEGTLVTVSSASTKGPSVFPLAPSSKSTSGGTAALGCLVKDYFPEPVTVSWNSGALTSGVHTFPAVLQSSGLYSLSSVVTVPSSSLGTQTYICNVNHKPSNTKVDKKVEPKSCDKTHTCPPCPAPDLLGDDSVFLFPPKPKDTLMISRTPEVTCVVVDVSDEDGEVKFNWYVDGVEVHNAKTKPREEQYNSTYRVVSVLTVLHQDWLNGKEYKCKVSNKALPRPIEKTISKAKGQPREPQVYTLPPSRDELTKNQVSLTCLVKGFYPSDIAVEWESNGQPENNYKTTPPVLDSDGSFFLYSKLTVDKSRWQQGNVFSCSVMHEALHNHYTQESLSLSP
light: not shown
notes: E233D/G237D/P238D/H268D/P271G/A330R (EU) in IL6R-B3; also called IL6R-BP20B/IL6R-L; copies: 2 + 2
For B4, the Kd worked out at 0.85 µM in assay [3] and 8.3 µM in assay [1].

B5: IL6R-BP195/IL6R-L (antibody, human IgG1, kappa)
heavy: QVQLQESGPGLVKPSETLSLTCAVSGHSISHDHAWSWVRQPPGEGLEWIGFISYSGITNYNPSLQGRVTISRDNSKNTLYLQMNSLRAEDTAVYYCARSLARTTAMDYWGEGTLVTVSSASTKGPSVFPLAPSSKSTSGGTAALGCLVKDYFPEPVTVSWNSGALTSGVHTFPAVLQSSGLYSLSSVVTVPSSSLGTQTYICNVNHKPSNTKVDKKVEPKSCDKTHTCPPCPAPDYLGDDSVFLFPPKPKDTLMISRTPEVTCVVVDVSDEDGEVKFNWYVDGVEVHNAKTKPREEQDNSTYRVVSVLTVLHQDWLNGKEYKCKVSNAALPKPIEKTISKAKGQPREPQVYTLPPSRDELTKNQVSLTCLVKGFYPSDIAVEWESNGQPENNYKTTPPVLDSDGSFFLYSKLTVDKSRWQQGNVFSCSVMHEALHNHYTQESLSLSP
light: not shown
notes: E233D/L234Y/G237D/P238D/H268D/P271G/Y296D/K326A/A330K (EU) in IL6R-B3; copies: 2 + 2
As to B5, the Kd in assay [3] came out at 0.91 µM; in assay [1] it was 10 µM; in assay [4], 0.05 µM.

B6: IL6R-BP132/IL6R-L (antibody, human IgG1, kappa)
heavy: QVQLQESGPGLVKPSETLSLTCAVSGHSISHDHAWSWVRQPPGEGLEWIGFISYSGITNYNPSLQGRVTISRDNSKNTLYLQMNSLRAEDTAVYYCARSLARTTAMDYWGEGTLVTVSSASTKGPSVFPLAPSSKSTSGGTAALGCLVKDYFPEPVTVSWNSGALTSGVHTFPAVLQSSGLYSLSSVVTVPSSSLGTQTYICNVNHKPSNTKVDKKVEPKSCDKTHTCPPCPAPDLLGGDSVFLFPPKPKDTLMISRTPEVTCVVVDVSHEDPEVKFNWYVDGVEVHNAKTKPREEQYNSTYRVVSVLTVLHQDWLNGKEYKCKVSNAALPKPIEKTISKAKGQPREPQVYTLPPSRDELTKNQVSLTCLVKGFYPSDIAVEWESNGQPENNYKTTPPVLDSDGSFFLYSKLTVDKSRWQQGNVFSCSVMHEALHNHYTQESLSLSP
light: not shown
notes: E233D/P238D/K326A/A330K (EU) in IL6R-B3; copies: 2 + 2
With B6, the values for the dissociation constant Kd in assay [3] and in assay [1] were 8 µM and 30 µM, respectively.

B7: IL6R-BP176/IL6R-L (antibody, human IgG1, kappa)
heavy: QVQLQESGPGLVKPSETLSLTCAVSGHSISHDHAWSWVRQPPGEGLEWIGFISYSGITNYNPSLQGRVTISRDNSKNTLYLQMNSLRAEDTAVYYCARSLARTTAMDYWGEGTLVTVSSASTKGPSVFPLAPSSKSTSGGTAALGCLVKDYFPEPVTVSWNSGALTSGVHTFPAVLQSSGLYSLSSVVTVPSSSLGTQTYICNVNHKPSNTKVDKKVEPKSCDKTHTCPPCPAPDLLGGDSVFLFPPKPKDTLMISRTPEVTCVVVDVSHEDPEVKFNWYVDGVEVHNAKTKPREEQYNSTYRVVSVLTVLHQDWLNGKEYKCKVSNDALPKPIEKTISKAKGQPREPQVYTLPPSRDELTKNQVSLTCLVKGFYPSDIAVEWESNGQPENNYKTTPPVLDSDGSFFLYSKLTVDKSRWQQGNVFSCSVMHEALHNHYTQESLSLSP
light: not shown
notes: E233D/P238D/K326D/A330K (EU) in IL6R-B3; copies: 2 + 2
In turn, B7 registered a Kd in assay [1] of 30 µM.

B8: IL6R-BP209/IL6R-L (antibody, human IgG1, kappa)
heavy: QVQLQESGPGLVKPSETLSLTCAVSGHSISHDHAWSWVRQPPGEGLEWIGFISYSGITNYNPSLQGRVTISRDNSKNTLYLQMNSLRAEDTAVYYCARSLARTTAMDYWGEGTLVTVSSASTKGPSVFPLAPSSKSTSGGTAALGCLVKDYFPEPVTVSWNSGALTSGVHTFPAVLQSSGLYSLSSVVTVPSSSLGTQTYICNVNHKPSNTKVDKKVEPKSCDKTHTCPPCPAPELLGDDSVFLFPPKPKDTLMISRTPEVTCVVVDVSDEDGEVKFNWYVDGVEVHNAKTKPREEQYNSTYRVVSVLTVLHQDWLNGKEYKCKVSNAALPRPIEKTISKAKGQPREPQVYTLPPSRDELTKNQVSLTCLVKGFYPSDIAVEWESNGQPENNYKTTPPVLDSDGSFFLYSKLTVDKSRWQQGNVFSCSVMHEALHNHYTQESLSLSP
light: not shown
notes: G237D/P238D/H268D/P271G/K326A/A330R (EU) in IL6R-B3; copies: 2 + 2
Consider B8, for which the dissociation constant Kd in assay [2] was determined as 0.039 µM; in assay [1], 10 µM; in assay [4], 0.051 µM.
